# Measurements: publication PMC3002026 (The Journal of Cell Biology, 2010)
# B1: Mdv1 CC^231–299 (domain or fragment, yeast)
# chain: GPQTLVNSLEFLNIQKNSTLSEIRDIEVEVENLRQKKEKLLGKIANIEQNQLLLEDNLKQIDDRLDFLEEY
# Molecular target: the molecule itself
# Assay: AUC
protein,measurement,value
B1,stoichiometry N,1.95
